From the supplement of paper PMC12764529 come the findings set out here.

± gives the half width of the 95% confidence interval. Some results are limits rather than exact numbers.

A short description of data set [1]: folding stability dG unfold from chymotrypsin proteolysis; higher = more stable. The essentials:
(§1)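 K50 was inferred by Bayesian fitting of sequencing counts obtained after protease digestion of designed mini-proteins. Unfolding free energy was derived by comparison with a sequence-predicted unfolded-state K50 and a shared folded-state K50, for each protease or both combined. The mini-proteins were under 80 residues, had no cysteine, were carried in a PA-tagged cDNA display construct, and were kept only if AlphaFold2 dimer inter-PAE exceeded 15.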

A short description of data set [2]: folding stability dG unfold (combined trypsin and chymotrypsin); higher = more stable. The essentials:
as §1

The nature of data set [3]: folding stability dG unfold from trypsin proteolysis; higher = more stable. The gist of the method:
as §1

Consider “SAGGYKYKREKYRDPENGQPRERYKREPPPPPPPSISININAPPEMADKIADILQDLLPNMPVGINGSAGGS [r8_437_TrROS]”, for which the “folding stability dG unfold” value in data set [1] turned out to be 3.04 ± 0.23 kcal/mol; in data set [2] it was 2.84 ± 0.21 kcal/mol; in data set [3], 2.45 ± 0.088 kcal/mol.

On to “SAGGYLVRIEMPNGREHEYPVKDIDDAASRFRDHLGFPPNMKLKVEVYDPKDGEKKERTLTIPMPKPKSAGG [r13_145_TrROS]”, for which the “folding stability dG unfold” value came out at 0.504 ± 0.12 kcal/mol in data set [1], 0.378 ± 0.069 kcal/mol in data set [2] and 0.0313 ± 0.092 kcal/mol in data set [3].

As for “SAGGYVRIRIELQEKRKPPDGKQQQRKKKITITVRLPPNEEMRMPDGKDIDPGKSAEELADYALDNLSAGGS [r16_440_TrROS]”, the entries for the “folding stability dG unfold” value in data set [1], in data set [2] and in data set [3] were 1.68 ± 0.077 kcal/mol, 1.92 ± 0.15 kcal/mol and 2.16 ± 0.08 kcal/mol, respectively.

With “SAGGYYIEFRNPNNGNTVTIPPELIEAIKSGDPDKLKKLPPWFRDALDNIDRVEIQPPPPVPPVPPGKSAGG [r13_233_TrROS]”, the figures for the “folding stability dG unfold” value in data set [1], in data set [2] and in data set [3] were 0.958 ± 0.041 kcal/mol, 0.887 ± 0.053 kcal/mol and 0.68 ± 0.051 kcal/mol, respectively.

Regarding “SAGIEIDIEVDPENGFIKITAKIHNPDGNPVYEMEMWIPVDNGRIYRVDIRINPDNGKIELDIEPFPLNSAG [r5_34_TrROS]”, the “folding stability dG unfold” value in data set [1] is 3.88 ± 0.24 kcal/mol; in data set [2], 3.79 ± 0.26 kcal/mol; in data set [3] it was 3.48 ± 0.29 kcal/mol.

For the sequence “SAGITILFNSAEDAENFAEELAEDYPNMNVTIKIHDPEHGEPVEIPVKIPPPPPKPKRDPDNGNKKYEGSAG [r5_870_TrROS]”, the “folding stability dG unfold” value in data set [1] was 0.506 ± 0.053 kcal/mol; in data set [2], 0.286 ± 0.13 kcal/mol; in data set [3] it was -0.132 ± 0.043 kcal/mol.

Turning to “SAGITLHPDARIILKNPSTGEKIELRSETIRRLIAEILGTDRPEEITAEQINAFALSLGFEEAEFEEPSAGG [r19_67_TrMRF]”, the “folding stability dG unfold” value in data set [1] is 3.312 ± 0.011 kcal/mol; in data set [2], 3.02 ± 0.045 kcal/mol; in data set [3], 2.29 ± 0.031 kcal/mol.

Take “SAGKDEKLVKVIVKFNDKTFEVVVKEEDLKKLVESGILKVVGKIPGKNIVAIKVEVPPPKGDPVGPTPVSAG [r5_868_TrMRF]”: the “folding stability dG unfold” value turned out to be 2.82 ± 0.14 kcal/mol in data set [1], 2.5 ± 0.17 kcal/mol in data set [2] and 2.08 ± 0.24 kcal/mol in data set [3].

In the case of “SAGKELVLRVRLYRPVPLEEPRVEEREVVVPRKEDEPIEKVVEELLEPDWVLEVEVFDEGKLIERYYTHSAG [r5_278_TrMRF]”, the “folding stability dG unfold” value was found to be 1.36 ± 0.22 kcal/mol in data set [1], 1.11 ± 0.2 kcal/mol in data set [2] and 0.721 ± 0.075 kcal/mol in data set [3].

Regarding “SAGKIEITVKPDGTVIIKVTVEVDGKKLELTIEVPPEMTIEEIIEKLKELAEELGVEKVEVEIVPLPPSAGG [r19_31_TrROS_Hall]”, the “folding stability dG unfold” value in data set [1] is 2.9 ± 0.45 kcal/mol; in data set [2], > 6 kcal/mol; in data set [3], 3.9 ± 0.85 kcal/mol.

On to “SAGKIEVKKNYVVIEIKVEGKELKLVIKVKTKEEQEKALELVKKLEEELKKEGLEVEVKVEVFKEGEEVSAG [r5_823_TrROS_Hall]”, for which the “folding stability dG unfold” value turned out to be 3 ± 0.16 kcal/mol in data set [1], 2.8 ± 0.23 kcal/mol in data set [2] and 2.2 ± 0.15 kcal/mol in data set [3].

Turning to “SAGKIKIEKENGEVKIEIEVPEEEIEKLKKLLEELKKKGFEVEKVEVKVEKKEDGTVKVTIKVKIKPKPSAG [r5_739_TrROS_Hall]”, the “folding stability dG unfold” value in data set [1] stood at 3.42 ± 0.41 kcal/mol; in data set [2] it was 2.99 ± 0.51 kcal/mol; in data set [3], 1.91 ± 0.13 kcal/mol.

“SAGKIKKIEVKEVTNENGEKYKKITIEVEKEGKKVEIIVNKNGEKFIKVEKNGKTITLPLDEALELLKKSAG [r5_157_TrROS_Hall]”: the “folding stability dG unfold” value was determined as 1.19 ± 0.13 kcal/mol in data set [1], 1.23 ± 0.3 kcal/mol in data set [2] and 1.23 ± 0.088 kcal/mol in data set [3].

On to “SAGKIKPGQKIKIKITSIEKLKDGTIKIKAEIELEEKGYKITIEAEIKYDKKTKKLTIKVKIKIEPKPSAGG [r19_342_TrROS_Hall]”, for which the entries for the “folding stability dG unfold” value in data set [1], in data set [2] and in data set [3] were 4.14 ± 0.18 kcal/mol, 3.88 ± 0.24 kcal/mol and 3.26 ± 0.14 kcal/mol, respectively.

As for “SAGKIKVYYDPKLGRIIEIPLPNGKRIRIYLPKNKLIIVAEDPEGNKAIPIEIETKIGDIIKIIKEIAGSAG [r5_820_TrMRF]”, the “folding stability dG unfold” value in data set [1] stood at 3.57 ± 0.11 kcal/mol; in data set [2], 3.16 ± 0.18 kcal/mol; in data set [3], 2.9 ± 0.075 kcal/mol.

Regarding “SAGKINIPPDTDITVKISTEKKPNPPSPEEEEYVGVSYIKVKKNPDGSIEVEEEKFEIISKEEAEKMGLSAG [r5_340_JUSTAS]”, the “folding stability dG unfold” value in data set [1] came out at 0.177 ± 0.31 kcal/mol; in data set [2], 0.23 ± 0.28 kcal/mol; in data set [3] it was 0.16 ± 0.13 kcal/mol.

Regarding “SAGKISSIDISPFKLPDGSYPYLLRVSFPDLGTEVDFIFPAKPSDAINFAKELRKSLPNIPLTFSNISSAGG [r19_317_TrMRF]”, the “folding stability dG unfold” value in data set [1] turned out to be 1.89 ± 0.11 kcal/mol; in data set [2] it was 1.87 ± 0.11 kcal/mol; in data set [3], 1.94 ± 0.05 kcal/mol.

Regarding “SAGKKKFITIVIPIEKKEKLKKAVEELKKKFNAKELAVIPNPEKNEIIEVVVKETKDAIIKIVIIAKESAGG [r19_262_TrMRF]”, the “folding stability dG unfold” value in data set [1] was found to be 1.26 ± 0.029 kcal/mol; in data set [2], 1.45 ± 0.089 kcal/mol; in data set [3], 1.68 ± 0.036 kcal/mol.
